The record followed here is paper PMC6395645, “Anopheline antiplatelet protein from mosquito saliva regulates blood feeding behavior” (Scientific Reports, 2019).

In the assay the target is T1, Anopheline antiplatelet protein (AAPP) (Anopheles stephensi (endogenous in …, UniProt Q7YT37)).
T1 construct: Anopheline antiplatelet protein (AAPP), predominant saliva protein of Anopheles stephensi; acidic secretory protein, Mr = 37 kDa on immunoblots; Same endogenous protein in saliva and in salivary gland lysates; in TG mosquitoes it is present together with mDsRed-8H7scFv; source: endogenous, Anopheles stephensi saliva and salivary gland lysates/homogenates (WT and TG mosquitoes)
Nature of the assay: pull-down; Ni-NTA beads added to lysates (Cellytic M) of dissected salivary glands of TG and WT mosquitoes, 1 h on ice, washed with PBS; His-tagged mDsRed-8H7scFv held on the resin; eluate blotted with anti-AAPP mAb 28B8 and anti-mDsRed polyclonal Ab. As to conditions: partners not purified.

T1 sequence (Q7YT37 20-269): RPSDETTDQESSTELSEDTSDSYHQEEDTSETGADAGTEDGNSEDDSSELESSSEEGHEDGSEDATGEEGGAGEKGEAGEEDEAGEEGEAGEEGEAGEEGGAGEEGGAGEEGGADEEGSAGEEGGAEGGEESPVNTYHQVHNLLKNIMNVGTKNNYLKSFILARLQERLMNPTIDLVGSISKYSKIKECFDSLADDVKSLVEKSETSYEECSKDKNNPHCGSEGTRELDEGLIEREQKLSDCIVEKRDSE

B1: mDsRed-8H7scFv (scFv, V domains shown)
VH: QVQLQQPGAELVRPGASVKLSCKASGYTFTSYWMNWVKQRPGQGLEWIGLIDPSDSETHYNQMFKDKATLTVDKSSSTAYMQLSSLTSEDSAVYYCARGGTYWGQGTTLTVSS
VL: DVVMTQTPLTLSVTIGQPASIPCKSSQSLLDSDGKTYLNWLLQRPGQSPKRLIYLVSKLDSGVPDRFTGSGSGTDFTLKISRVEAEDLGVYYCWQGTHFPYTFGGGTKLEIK
notes: VH of the anti-AAPP mAb 8H7; hinge/linker, printed as (Gly4Ser)3; VL of the anti-AAPP mAb 8H7; 54.6 kDa on blots; 8H7scFv is fused to monomeric DsRed through Gly4Ser x 3 linkers; The secretion signal is not described; also called anti-AAPP scFv; anti-AAPP antibody single-chain fragment; source: transgenic Anopheles stephensi (TG-03, TG-30, TG-37), expressed in salivary glands under the aapp …
As for B1, the binding result is “binds”.
